Where no end group is shown, it is not given here.
Experiments:
EBNA2/CBF1 complex = target: T1, EBNA2/CBF1 complex (Homo sapiens, UniProt Q06330); assay: EMSA competition of synthetic peptides for EBNA2/CBF1 complex formation; format: binding; conditions: for competition for EBNA2/CBF1 complex formation in EMSA, in words: 1.25-10 μg synthetic peptide
T1 construct: and heparin-agarose purified CBF1; endogenous in cells; host or cells: CBF1: heparin-agarose purified cell protein; EBNA2 252-425: in vitro translation
Description: FIG. 8 is an EMSA that examines the ability of synthetic peptides representing CR5 (PEP.CR5), CR6 (PEP.CR6), mutant CR6 (CR6WW323SR) (PEP.CR6WW>SR), CR7 (PEP.CR7), and a control, nonconserved region comprising amino acids 265-279 (CONTROL) to compete for EBNA2/CBF1 complex formation. Increasing amounts of peptide (i.e., 1.25, 2.5, 5.0 and 10 μg; black triangles) were added to the binding reactions containing the Cp CBF1 binding site probe, in vitro translated wild-type EBNA2 (i.e., corresponding to amino acids 252-425) and heparin-agarose purified CBF1.
CR6 could perform this function by generating a specific secondary or tertiary structure that facilitates interaction (e.g., a lock and key model of interaction). Alternately, CR6 could mediate direct protein-protein contacts, perhaps through the formation of a tryptophan bridge (Corina et al., Virology, 197, 391-396 (1993)). To further examine the proposed contributions of CR5, CR6, and CR7 in EBNA2 interaction, and to probe the role of CR6, five 10-15 amino acid peptides were synthesized. The peptides were tested for their ability to compete with a full length EBNA2 protein for complex formation with CBF1. The relative location of the peptides in the EBNA2 protein is illustrated in FIG. 2, and the exact position of the sequences can be determined from FIG. 5. The peptides are as follows: a control peptide comprised of amino acids 265-279 (i.e., Ser Thr Pro Asn Asp Pro Asp Ser Pro Glu Pro Xaa Ser Pro Thr [SEQ ID NO:8], wherein Xaa is Arg or Pro); a CR5 peptide comprised of amino acids 299-314 (i.e., Ala Pro Ala Gln Pro Pro Pro Gly Ile Ile Asn Asp Gln Gln Leu [SEQ ID NO:9]); a CR6 peptide comprised of amino acids 318-327 (i.e., Pro Ser Gly Pro Pro Trp Trp Pro Pro Ile [SEQ ID NO:6]); a CR6 WW323SR peptide comprised of amino acids 318-327 (i.e., Pro Ser Gly Pro Pro Ser Arg Pro Pro Ile [SEQ ID NO:10]); and a CR7 peptide comprised of amino acids 380-391 (i.e., Pro Ser Met Pro Glu Leu Ser Pro Val Leu Gly Leu [SEQ ID NO:11]).
Increasing amounts of the peptides were added to the binding reaction mixtures which were then analyzed using an EMSA (FIG. 8). […] It is known that EBNA2 can interact with CBF1 in solution (Grossman et al., supra; Henkel et al., supra). A typical binding reaction presumably contains both DNA-bound and non-DNA-bound EBNA2/CBF1 complexes.

[1] = target: T2, EBNA2 interaction with CBF1 in solution (Homo sapiens, UniProt Q06330); assay: GST affinity assay with GST-EBNA2 (252-425) and 35S-labeled in vitro translated CBF1; format: binding
T2 construct: made in house; host or cells: CBF1: in vitro translation
T2 sequence (Q06330 whole entry): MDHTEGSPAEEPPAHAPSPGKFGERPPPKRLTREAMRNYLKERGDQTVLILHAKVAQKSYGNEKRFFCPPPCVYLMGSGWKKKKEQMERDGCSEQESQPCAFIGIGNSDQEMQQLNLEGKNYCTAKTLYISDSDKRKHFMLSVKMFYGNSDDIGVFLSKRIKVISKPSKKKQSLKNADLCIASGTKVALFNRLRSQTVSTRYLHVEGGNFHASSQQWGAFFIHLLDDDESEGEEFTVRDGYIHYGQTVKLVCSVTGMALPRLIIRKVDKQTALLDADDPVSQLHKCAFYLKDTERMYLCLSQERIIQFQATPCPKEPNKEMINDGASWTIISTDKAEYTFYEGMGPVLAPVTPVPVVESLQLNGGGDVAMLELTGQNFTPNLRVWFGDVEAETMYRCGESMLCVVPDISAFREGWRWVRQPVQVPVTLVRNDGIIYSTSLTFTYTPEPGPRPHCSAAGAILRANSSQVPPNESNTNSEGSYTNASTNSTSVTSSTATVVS

T1 sequence (Q06330 whole entry, one chain of several): as the sequence (Q06330 whole entry) above

Row | Substance | competition for EBNA2/CBF1 complex formation in EMSA, in words (EBNA2/CBF1 complex) | EBNA2/CBF1 complex eliminated by competition (EBNA2/CBF1 complex; 1.25-10 μg synthetic peptide added to binding reaction) [%] | competition for EBNA2 interaction with CBF1 in GST affinity assay, in words [1]
1 | Pro Ser Met Pro Glu Leu Ser Pro Val Leu Gly Leu [CR7 peptide] | Neither the control peptide nor the peptides spanning CR5 or CR7 had any effect on the formation of the EBNA2/CBF1 complex | – | –
2 | PSGPPWWPPI [CR6 peptide] | regenerating the DNA-bound CBF1 complex to the levels seen in the absence of added EBNA2 | 40 | could compete for EBNA2 interaction with CBF1 in solution
3 | APAQPPPGIINDQQL [CR5 peptide] | Neither the control peptide nor the peptides spanning CR5 or CR7 had any effect on the formation of the EBNA2/CBF1 complex | – | –
4 | Ser Thr Pro Asn Asp Pro Asp Ser Pro Glu Pro Xaa Ser Pro Thr [control peptide, reference compound] | Neither the control peptide nor the peptides spanning CR5 or CR7 had any effect on the formation of the EBNA2/CBF1 complex | – | –
5 | PSGPPSRPPI [CR6 WW323SR peptide] | abolished the ability of the peptide to compete with EBNA2 for interaction with CBF1 | – | abolished the ability of the peptide to compete with EBNA2 for interaction with CBF1

Reference: patent US6495144B2, “EBNA2 peptides and methods of using same” (Johns Hopkins University School of Medicine, priority 1996, dated 2002)
